Experimental data published in the supplement of paper PMC5998384.

Assays:
HeLa Kyoto [1] = test: thermal stability score vs G1/S (z-score of summed log2 fold changes over temperatures); higher = more thermally stable than in G1/S
HeLa Kyoto [2] = test: melting temperature (median over replicates), in situ; higher = more thermally stable
HeLa Kyoto [3] = test: solubility in G1/S (NP-40 vs SDS abundance) (log2 ratio); higher = more soluble; conditions: cell cycle stage: G1/S
HeLa Kyoto [4] = test: solubility change mitosis vs G1/S (difference of NP-40 vs SDS log2 ratios) (log2 ratio difference); higher = more soluble in mitosis
[5] = cell cycle stage: early G1 (4.5 h after nocodazole release)
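Throughout, for melting temperature (median over replicates), in situ: HeLa Kyoto cells synchronized by double thymidine or nocodazole block, proteins quantified by TMT10plex mass spectrometry, three independent biological replicates.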
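Throughout, for solubility change mitosis vs G1/S (difference of NP-40 vs SDS log2 ratios): synchronized HeLa Kyoto cells (double thymidine block for G1/S, nocodazole release for mitosis), protein amounts in NP-40 versus SDS lysates quantified by mass spectrometry, three biological replicates.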
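Throughout, for solubility in G1/S (NP-40 vs SDS abundance): HeLa Kyoto cells arrested at G1/S by double thymidine block, proteins quantified by TMT10plex mass spectrometry in mild NP-40 versus SDS extracts, three biological replicates.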
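Throughout, for thermal stability score vs G1/S (z-score of summed log2 fold changes over temperatures): synchronized HeLa Kyoto cells, proteins quantified by TMT10plex mass spectrometry, three biological replicates, mitosis taken 0.5 h after nocodazole release, G1/S directly after double thymidine block.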

Sequence | thermal stability score (HeLa Kyoto [1]; [5]) | thermal stability score (HeLa Kyoto [1]; cell cycle stage: mitosis) | melting temperature (HeLa Kyoto [2]; cell cycle stage: G1/S) | melting temperature (HeLa Kyoto [2]; cell cycle stage: mitosis) | solubility in G1/S (log2) (HeLa Kyoto [3]) | solubility change mitosis (log2) (HeLa Kyoto [4])
MEVAANCSLRVKRPLLDPRFEGYKLSLEPLPCYQLELDAAVAEVKLRDDQYTLEHMHAFGMYNYLHCDSWYQDSVYYIDTLGRIMNLTVMLDTALGKPREVFRLPTDLTACDNRLCASIHFSSSTWVTLSDGTGRLYVIGTGERGNSASEKWEIMFNEELGDPFIIIHSISLLNAEEHSIATLLLRIEKEELDMKGSGFYVSLEWVTISKKNQDNKKYEIIKRDILRGKSVPHYAAIEPDGNGLMIVSYKSLTFVQAGQDLEENMDEDISEKIKEPLYYWQQTEDDLTVTIRLPEDSTKEDIQIQFLPDHINIVLKDHQFLEGKLYSSIDHESSTWIIKESNSLEISLIKKNEGLTWPELVIGDKQGELIRDSAQCAAIAERLMHLTSEELNPNPDKEKPPCNAQELEECDIFFEESSSLCRFDGNTLKTTHVVNLGSNQYLFSVIVDPKEMPCFCLRHDVDALLWQPHSSKQDDMWEHIATFNALGYVQASKRDKKFFACAPNYSYAALCECLRRVFIYRQPAPMSTVLYNRKEGRQVGQVAKQQVASLETNDPILGFQATNERLFVLTTKNLFLIKVNTEN [NUDCD1] | 0.569 | 0.543 | 51.5 °C | 52.4 °C | -0.0356 | -0.234
MEVKGKKQFTGKSTKTAQEKNRFHKNSDSGSSKTFPTRKVAKEGGPKVTSRNFEKSITKLGKKGVKQFKNKQQGDKSPKNKFQPANKFNKKRKFQPDGRSDESAAKKPKWDDFKKKKKELKQSRQLSDKTNYDIVVRAKQMWEILRRKDCDKEKRVKLMSDLQKLIQGKIKTIAFAHDSTRVIQCYIQYGNEEQRKQAFEELRDDLVELSKAKYSRNIVKKFLMYGSKPQIAEIIRSFKGHVRKMLRHAEASAIVEYAYNDKAILEQRNMLTEELYGNTFQLYKSADHRTLDKVLEVQPEKLELIMDEMKQILTPMAQKEAVIKHSLVHKVFLDFFTYAPPKLRSEMIEAIREAVVYLAHTHDGARVAMHCLWHGTPKDRKVIVKTMKTYVEKVANGQYSHLVLLAAFDCIDDTKLVKQIIISEIISSLPSIVNDKYGRKVLLYLLSPRDPAHTVREIIEVLQKGDGNAHSKKDTEVRRRELLESISPALLSYLQEHAQEVVLDKSACVLVSDILGSATGDVQPTMNAIASLAATGLHPGGKDGELHIAEHPAGHLVLKWLIEQDKKMKENGREGCFAKTLVEHVGMKNLKSWASVNRGAIILSSLLQSCDLEVANKVKAALKSLIPTLEKTKSTSKGIEILLEKLST [PUM3] | 1.46 | 3.65 | 46.6 °C | 50 °C | -1.05 | 0.758
MEVKPPPGRPQPDSGRRRRRRGEEGHDPKEPEQLRKLFIGGLSFETTDDSLREHFEKWGTLTDCVVMRDPQTKRSRGFGFVTYSCVEEVDAAMCARPHKVDGRVVEPKRAVSREDSVKPGAHLTVKKIFVGGIKEDTEEYNLRDYFEKYGKIETIEVMEDRQSGKKRGFAFVTFDDHDTVDKIVVQKYHTINGHNCEVKKALSKQEMQSAGSQRGRGGGSGNFMGRGGNFGGGGGNFGRGGNFGGRGGYGGGGGGSRGSYGGGDGGYNGFGGDGGNYGGGPGYSSRGGYGGGGPGYGNQGGGYGGGGGYDGYNEGGNFGGGNYGGGGNYNDFGNYSGQQQSNYGPMKGGSFGGRSSGSPYGGGYGSGGGSGGYGSRRF [HNRNPA3] | 2.6 | 4.71 | 47.8 °C | 49.3 °C | -0.252 | 0.411
MEVSGPEDDPFLSQLHQVQCPVCQQMMPAAHINSHLDRCLLLHPAGHAEPAAGSHRAGERAKGPSPPGAKRRRLSESSALKQPATPTAAESSEGEGEEGDDGGETESRESYDAPPTPSGARLIPDFPVARSSSPGRKGSGKRPAAAAAAGSASPRSWDEAEAQEEEEAVGDGDGDGDADADGEDDPGHWDADAAEAATAFGASGGGRPHPRALAAEEIRQMLQGKPLADTMRPDTLQDYFGQSKAVGQDTLLRSLLETNEIPSLILWGPPGCGKTTLAHIIASNSKKHSIRFVTLSATNAKTNDVRDVIKQAQNEKSFFKRKTILFIDEIHRFNKSQQDTFLPHVECGTITLIGATTENPSFQVNAALLSRCRVIVLEKLPVEAMVTILMRAINSLGIHVLDSSRPTDPLSHSSNSSSEPAMFIEDKAVDTLAYLSDGDARAGLNGLQLAVLARLSSRKMFCKKSGQSYSPSRVLITENDVKEGLQRSHILYDRAGEEHYNCISALHKSMRGSDQNASLYWLARMLEGGEDPLYVARRLVRFASEDIGLADPSALTQAVAAYQGCHFIGMPECEVLLAQCVVYFARAPKSIEVYSAYNNVKACLRNHQGPLPPVPLHLRNAPTRLMKDLGYGKGYKYNPMYSEPVDQEYLPEELRGVDFFKQRRC [WRNIP1] | 2.61 | 5.06 | 47.5 °C | 49.3 °C | 0.228 | -0.0694
MFCVTPPELETKMNITKGGLVLFSANSNSSCMELSKKIAERLGVEMGKVQVYQEPNRETRVQIQESVRGKDVFIIQTVSKDVNTTIMELLIMVYACKTSCAKSIIGVIPYFPYSKQCKMRKRGSIVSKLLASMMCKAGLTHLITMDLHQKEIQGFFNIPVDNLRASPFLLQYIQEEIPDYRNAVIVAKSPASAKRAQSFAERLRLGIAVIHGEAQDAESDLVDGRHSPPMVRSVAAIHPSLEIPMLIPKEKPPITVVGDVGGRIAIIVDDIIDDVDSFLAAAETLKERGAYKIFVMATHGLLSSDAPRRIEESAIDEVVVTNTIPHEVQKLQCPKIKTVDISMILSEAIRRIHNGESMSYLFRNIGLDD [PRPSAP2] | -0.303 | -0.671 | 57.5 °C | 57.4 °C | 0.117 | -0.121
MFEEKASSPSGKMGGEEKPIGAGEEKQKEGGKKKNKEGSGDGGRAELNPWPEYIYTRLEMYNILKAEHDSILAEKAEKDSKPIKVTLPDGKQVDAESWKTTPYQIACGISQGLADNTVIAKVNNVVWDLDRPLEEDCTLELLKFEDEEAQAVYWHSSAHIMGEAMERVYGGCLCYGPPIENGFYYDMYLEEGGVSSNDFSSLEALCKKIIKEKQAFERLEVKKETLLAMFKYNKFKCRILNEKVNTPTTTVYRCGPLIDLCRGPHVRHTGKIKALKIHKNSSTYWEGKADMETLQRIYGISFPDPKMLKEWEKFQEEAKNRDHRKIGRDQELYFFHELSPGSCFFLPKGAYIYNALIEFIRSEYRKRGFQEVVTPNIFNSRLWMTSGHWQHYSENMFSFEVEKELFALKPMNCPGHCLMFDHRPRSWRELPLRLADFGVLHRNELSGALTGLTRVRRFQQDDAHIFCAMEQIEDEIKGCLDFLRTVYSVFGFSFKLNLSTRPEKFLGDIEVWDQAEKQLENSLNEFGEKWELNSGDGAFYGPKIDIQIKDAIGRYHQCATIQLDFQLPIRFNLTYVSHDGDDKKRPVIVHRAILGSVERMIAILTENYGGKWPFWLSPRQVMVVPVGPTCDEYAQKVRQQFHDAKFMADIDLDPGCTLNKKIRNAQLAQYNFILVVGEKEKISGTVNIRTRDNKVHGERTISETIERLQQLKEFRSKQAEEEF [TARS] | 0.00611 | -0.985 | 51.9 °C | 51.6 °C | -0.0551 | -0.144
MFGKRKKRVEISAPSNFEHRVHTGFDQHEQKFTGLPRQWQSLIEESARRPKPLVDPACITSIQPGAPKTIVRGSKGAKDGALTLLLDEFENMSVTRSNSLRRDSPPPPARARQENGMPEEPATTARGGPGKAGSRGRFAGHSEAGGGSGDRRRAGPEKRPKSSREGSGGPQESSRDKRPLSGPDVGTPQPAGLASGAKLAAGRPFNTYPRADTDHPSRGAQGEPHDVAPNGPSAGGLAIPQSSSSSSRPPTRARGAPSPGVLGPHASEPQLAPPACTPAAPAVPGPPGPRSPQREPQRVSHEQFRAALQLVVDPGDPRSYLDNFIKIGEGSTGIVCIATVRSSGKLVAVKKMDLRKQQRRELLFNEVVIMRDYQHENVVEMYNSYLVGDELWVVMEFLEGGALTDIVTHTRMNEEQIAAVCLAVLQALSVLHAQGVIHRDIKSDSILLTHDGRVKLSDFGFCAQVSKEVPRRKSLVGTPYWMAPELISRLPYGPEVDIWSLGIMVIEMVDGEPPYFNEPPLKAMKMIRDNLPPRLKNLHKVSPSLKGFLDRLLVRDPAQRATAAELLKHPFLAKAGPPASIVPLMRQNRTR [PAK4] | 0.186 | 0.111 | 51.3 °C | 50.5 °C | 0.0713 | -0.000436
MFKKFDEKENVSNCIQLKTSVIKGIKNQLIEQFPGIEPWLNQIMPKKDPVKIVRCHEHIEILTVNGELLFFRQREGPFYPTLRLLHKYPFILPHQQVDKGAIKFVLSGANIMCPGLTSPGAKLYPAAVDTIVAIMAEGKQHALCVGVMKMSAEDIEKVNKGIGIENIHYLNDGLWHMKTYK [MCTS1] | -1.29 | -1.6 | 54.8 °C | 54.5 °C | 0.267 | -0.0597
MFLVGLTGGIASGKSSVIQVFQQLGCAVIDVDVMARHVVQPGYPAHRRIVEVFGTEVLLENGDINRKVLGDLIFNQPDRRQLLNAITHPEIRKEMMKETFKYFLRGYRYVILDIPLLFETKKLLKYMKHTVVVYCDRDTQLARLMRRNSLNRKDAEARINAQLPLTDKARMARHVLDNSGEWSVTKRQVILLHTELERSLEYLPLRFGVLTGLAAIASLLYLLTHYLLPYA [DCAKD] | -0.154 | 0.0944 | 51.7 °C | 50.9 °C | -0.0828 | -0.182
